The values that follow come from patent US20210301025A1 (published 2021).

In experiment [1] the target is T1, human EGFR on cells (A431, NCI-H292, NCI-H322, NCI-H441) (human, UniProt P00533 25-1210).
T1 construct: Endogenous EGFR of human tumor cell lines; also called HER-1; Erb-B1
Kind of experiment: A431 cell competition with biotinylated EGF. How it is done: A431 cells were plated at 5,000/well in opaque black 96-well plates and allowed to attach overnight at 37° C., in a humidified 5% CO₂ atmosphere. […] Cells were washed 3 times with 150 μL/well of FACS stain buffer. Cells were incubated with 50 μL/well of streptavidin-phycoerythrin conjugate (Invitrogen) diluted 1:100 in FACS stain buffer for 20 minutes at room temperature. Cells were washed 3 times with 150 μL/well of FACS stain buffer, after which wells were filled with 100 μL of FACS stain buffer and read for fluorescence at 600 nm using an Acumen eX3 reader. Data were plotted as the raw fluorescence signal against the logarithm of FN3 domain molar concentration and fitted to a sigmoidal dose-response curve with variable slope using GraphPad Prism 4 (GraphPad Software) to calculate IC₅₀ values.

The target of experiment [2] is T1, human EGFR on cells (A431, NCI-H292, …). The experiment can be described thus: A431 cell binding, anti-His-Alexa488 fluorescence. How it is done: A431 cells were plated at 5,000/well in opaque black 96-well plates and allowed to attach overnight at 37° C., in a humidified 5% CO₂ atmosphere. […] Supernatant was removed and cells were washed 3 times with 150 μL/well of FACS stain buffer. Cells were incubated with 50 μL/well of anti-penta His-Alexa488 antibody conjugate (Qiagen) diluted 1:100 in FACS stain buffer for 20 minutes at room temperature. Cells were washed 3 times with 150 μL/well of FACS stain buffer, after which wells were filled with 100 μL of FACS stain buffer and read for fluorescence at 488 nm using an Acumen eX3 reader. Data were plotted as raw fluorescence signal against the logarithm of the FN3 domain molar concentration and fitted to a sigmoidal dose-response curve with variable slope using GraphPad Prism 4 (GraphPad Software) to calculate EC₅₀ values.

Experiment [3] has the same target. Kind of experiment: cell-based or functional assay.
For experiment [4], the target named is human c-Met on cells (NCI-H441, NCI-H292, U87-MG) (human, UniProt P08581 25-1390). The experiment can be described thus: cell-based or functional assay.
Experiment [5] has as its target T2, recombinant human extracellular domain of EGFR fused to an IgG1 Fc (human, UniProt P00533 25-645).
T2 construct: Bought (R&D Systems); captured on anti-human Fc IgG for SPR; also called EGFR-Fc
The experiment can be described thus: SPR (ProteOn) per Example 3. An excerpt:
(§1) Select EGFR/c-Met molecules were characterized for their affinity to both EGFR and c-Met, their ability to inhibit EGFR and c-Met autophosphorylation, and their effect on proliferation of HGF cells. Binding affinity of the bispecific EGFR/c-Met molecules to recombinant EGFR and/or c-Met extracellular domain was further by surface Plasmon resonance methods using a Proteon Instrument (BioRad) according to protocol described in Example 3.

For experiment [6], the target named is T3, recombinant c-Met extracellular domain (human, UniProt P08581 16-932).
T3 construct: Construct used for SPR is not described further (may be the Fc chimera, as the protocol captures on anti-human Fc)
The experiment can be described thus: SPR (ProteOn) per Example 3.
Description: as §1

As a reminder, the IC50 is the concentration that inhibits the measured activity by half. Higher therefore signals weaker potency. Usually EC50 stands for the midpoint of the concentration-response curve. A higher EC50 goes with weaker potency. In general, Kd refers to the constant that tells how readily two partners part at equilibrium.

B1: P54AR4-81 (designed binder, not shown: small tags and cut ends)
chain: LPAPKNLVVSEVTEDSLRLSWDYDLGVYFDSFLIQYQESEKVGEAINLTVPGSERSYDLTGLKPGTEYTVSIYGVHNVYKDTNMRGLPLSAEFTT
Regarding B1, in experiment [1], the IC50 was 121 nM. Besides, the EC50 in experiment [2] is 84 nM.

B2: P54AR4-74 (designed binder, not shown: small tags and cut ends)
chain: LPAPKNLVVSEVTEDSLRLSWGYNGDHFDSFLIQYQESEKVGEAINLTVPGSERSYDLTGLKPGTEYTVSIYGVHNVYKDTNMRGLPLSAEFTT
Consider B2, for which a half-maximal effect in experiment [2] (EC50) was put at 77 nM.

B3: ECB106 (designed binder, not shown: small tags and cut ends)
chain: MLPAPKNLVVSEVTEDSARLSWDDPHAFYESFLIQYQESEKVGEAIVLTVPGSERSYDLTGLKPGTEYTVSIYGVHNVYKDTNIRGLPLSAIFTTAPAPAPAPAPLPAPKNLVVSRVTEDSARLSWTAPDAAFDSFWIRYFEFLGSGEAIVLTVPGSERSYDLTGLKPGTEYVVNILGVKGGKISPPLSAIFTT
notes: Bispecific: P54AR4-83v23, (AP)5, P114AR7P94-A3v22
With B3, in experiment [3], the “pEGFR inhibition in H292 cells IC50” value came out at 367 nM. Besides, the “pMet inhibition in H441 cells IC50” value in experiment [4] worked out at 53.3 nM. Moreover, the Kd turned out to be 16.7 nM in experiment [5] and 5.1 nM in experiment [6].

B4: ECB109 (designed binder, not shown: small tags and cut ends)
chain: MLPAPKNLVVSEVTEDSARLSWDDPHAFYESFLIQYQESEKVGEAIVLTVPGSERSYDLTGLKPGTEYTVSIYGVHNVYKDTNIRGLPLSAIFTTAPAPAPAPAPLPAPKNLVVSRVTEDSARLSWTAPDAAFDSFWIRYFEFLGSGEAIVLTVPGSERSYDLTGLKPGTEYVVNILSVKGGSISPPLSAIFTT
notes: Bispecific: P54AR4-83v23, (AP)5, P114AR7P95-C5v2
Take B4: the “pEGFR inhibition in H292 cells IC50” value in experiment [3] was found to be 432 nM. Further, the “pMet inhibition in H441 cells IC50” value in experiment [4] was found to be 26 nM. The Kd in experiment [5] was determined as 17.3 nM; in experiment [6], 2.1 nM.

B5: ECB107 (designed binder, not shown: small tags and cut ends)
chain: MLPAPKNLVVSEVTEDSARLSWDDPHAFYESFLIQYQESEKVGEAIVLTVPGSERSYDLTGLKPGTEYTVSIYGVHNVYKDTNIRGLPLSAIFTTAPAPAPAPAPLPAPKNLVVSRVTEDSARLSWTAPDAAFDSFWIRYFEFVGSGEAIVLTVPGSERSYDLTGLKPGTEYVVNILGVKGGSISPPLSAIFTT
notes: Bispecific: P54AR4-83v23, (AP)5, P114AR9P121-A6v2
B5: the “pEGFR inhibition in H292 cells IC50” value in experiment [3] turned out to be 812 nM. Moreover, in experiment [4], the “pMet inhibition in H441 cells IC50” value was 29.9 nM. Further, the Kd came out at 16.9 nM in experiment [5] and 9 nM in experiment [6].

B6: ECB108 (designed binder, not shown: small tags and cut ends)
chain: MLPAPKNLVVSEVTEDSARLSWDDPHAFYESFLIQYQESEKVGEAIVLTVPGSERSYDLTGLKPGTEYTVSIYGVHNVYKDTNIRGLPLSAIFTTAPAPAPAPAPLPAPKNLVVSRVTEDSARLSWTAPDAAFDSFWIRYFEFVSKGDAIVLTVPGSERSYDLTGLKPGTEYVVNILGVKGGSISPPLSAIFTT
notes: Bispecific: P54AR4-83v23, (AP)5, P114AR9P122-A7v2
As to B6, the “pEGFR inhibition in H292 cells IC50” value in experiment [3] stood at 814 nM. In experiment [4], the “pMet inhibition in H441 cells IC50” value turned out to be 126 nM. The dissociation constant Kd in experiment [5] stood at 15.3 nM; in experiment [6], 25.5 nM.
